Measured values: US20190233528A1 (published 2019)

B1: 10H10 CD70-specific CAR (other)
chain: EVQLVESGGGLVQPGGSLRLSCAVSGFTFSNHNIHWVRQAPGKGLEWISYISRSSSTIYYADSVKGRFTISRDNAKNSLYLQMNSLRDEDTAVYYCARDHAQWYGMDVWGQGTTVTVSSGGGGSGGGGSGGGGSGGGGSDIQMTQSPSSVSASVGDRVTITCRASQGISSWLAWYQQKPGKAPKVLIYAASSLQSGVPSRFSGSGSGTDFTLTISSLQPEDFATYYCQQAFSFPFTFGPGTKVDIKTTTPAPRPPTPAPTIASQPLSLRPEACRPAAGGAVHTRGLDFACDIYIWAPLAGTCGVLLLSLVITLYCKRGRKKLLYIFKQPFMRPVQTTQEEDGCSCRFPEEEEGGCELRVKFSRSADAPAYQQGQNQLYNELNLGRREEYDVLDKRRGRDPEMGGKPRRKNPQEGLYNELQKDKMAEAYSEIGMKGERRRGKGHDGLYQGLSTATKDTYDALHMQALPPR
notes: Chimeric antigen receptor on transduced Jurkat cells; the signal peptide is left out
B2: 17G6 CD70-specific CAR (other)
chain: EVQLVESGGGLVQPGGSLRLSCVASGFTFSSYWMSWVRQAPGKGLEWVASIKQDGSEKYYVDSVKGRFTISRDNAKNSVYLQMNSLRAEDTGVYYCAREGVNWGWRLYWHFDLWGRGTLVTVSSGGGGSGGGGSGGGGSGGGGSDIVMTQSPDSLAVSLGERATINCKSSQSVLYSYNNKNYVAWYQQKPGQPPNLLIFWASTRESGVPDRFSGSGSGTDFTLTISSLQAEDVAVYYCQQYYSTLTFGGGTKVEIKTTTPAPRPPTPAPTIASQPLSLRPEACRPAAGGAVHTRGLDFACDIYIWAPLAGTCGVLLLSLVITLYCKRGRKKLLYIFKQPFMRPVQTTQEEDGCSCRFPEEEEGGCELRVKFSRSADAPAYQQGQNQLYNELNLGRREEYDVLDKRRGRDPEMGGKPRRKNPQEGLYNELQKDKMAEAYSEIGMKGERRRGKGHDGLYQGLSTATKDTYDALHMQALPPR
notes: as for B1
B3: 40E3 CD70-specific CAR (other)
chain: QVQLQESGPGLVKPSETLSLTCTVSGGSISSYYWNWIRQPPGKGLEWIGYIYYSGSTNYNPSLKSRVTISVDTSKNQFSLKLRSVTAADTAVYYCARDIRTWGQGTLVTVSSGGGGSGGGGSGGGGSGGGGSDIQMTQSPSSLSASVGDRVTITCRASQGISNYLAWFQQKPGKAPKSLIYAASSLQSGVPSKFSGSGSGTDFTLTISSLQPEDFATYYCQQYNSYPLTFGGGTKVEIKTTTPAPRPPTPAPTIASQPLSLRPEACRPAAGGAVHTRGLDFACDIYIWAPLAGTCGVLLLSLVITLYCKRGRKKLLYIFKQPFMRPVQTTQEEDGCSCRFPEEEEGGCELRVKFSRSADAPAYQQGQNQLYNELNLGRREEYDVLDKRRGRDPEMGGKPRRKNPQEGLYNELQKDKMAEAYSEIGMKGERRRGKGHDGLYQGLSTATKDTYDALHMQALPPR
B4: P12G07 CD70-specific CAR (other)
chain: EVQLLESGGGLVQPGGSLRLSCAASGFTFNNFAMSWVRQAPGKGLEWVSGISGSGDNTYYADSVKGRFTISRDNSKNTLYLQMNSLRAEDTAVYYCAKDRDIGLGWYSYYLDVWGQGTLVTVSSGGGGSGGGGSGGGGSGGGGSELQSVLTQPPSASGTPGQRVTISCSGSSSNIGSNYVYWYQQLPGTAPKPLIYMNNQRPSGVPDRFSGSKSGTSASLAISGLRSEDEADYYCAAWDDSLSAVVFGTGTKLTVLTTTPAPRPPTPAPTIASQPLSLRPEACRPAAGGAVHTRGLDFACDIYIWAPLAGTCGVLLLSLVITLYCKRGRKKLLYIFKQPFMRPVQTTQEEDGCSCRFPEEEEGGCELRVKFSRSADAPAYQQGQNQLYNELNLGRREEYDVLDKRRGRDPEMGGKPRRKNPQEGLYNELQKDKMAEAYSEIGMKGERRRGKGHDGLYQGLSTATKDTYDALHMQALPPR
notes: as for B1
B5: P16C05 CD70-specific CAR (other)
chain: EVQLVQSGAEVKKPGESLKISCKGSGYSFTDYWIGWVRQMPGKGLEWMGMISPGGSTTIYRPSFQGQVTISADKSISTAYLQWSSLKASDTAMYYCAREMYTGGYGGSWYFDYWGQGTLVTVSSGGGGSGGGGSGGGGSGGGGSELDIQMTQSPSSLSASVGDRVTITCRASQSIGQSLNWYQQKPGKAPKLLIYGASSLQSGVPSRFSGSGSGTDFTLTISSLQPEDFATYYCQQSYSTPITFGQGTKVEIKTTTPAPRPPTPAPTIASQPLSLRPEACRPAAGGAVHTRGLDFACDIYIWAPLAGTCGVLLLSLVITLYCKRGRKKLLYIFKQPFMRPVQTTQEEDGCSCRFPEEEEGGCELRVKFSRSADAPAYQQGQNQLYNELNLGRREEYDVLDKRRGRDPEMGGKPRRKNPQEGLYNELQKDKMAEAYSEIGMKGERRRGKGHDGLYQGLSTATKDTYDALHMQALPPR
notes: as for B1
B6: P15D02 CD70-specific CAR (other)
chain: EVQLVQSGAEVKKPGESLKISCKGSGYSFASYWIGWVRQMPGKGLEWMGVIYPGTSETRYSPSFQGQVTISADKSISTAYLQWSSLKASDTAMYYCAKGLSASASGYSFQYWGQGTLVTVSSGGGGSGGGGSGGGGSGGGGSELDIQMTQSPSSLSASVGDRVTITCRASQSIDTYLNWYQQKPGKAPKLLIYSASSLHSGVPSRFSGSGSGTDFTLTISSLQPEDFATYYCQQSYSTTAWTFGQGTKVEIKTTTPAPRPPTPAPTIASQPLSLRPEACRPAAGGAVHTRGLDFACDIYIWAPLAGTCGVLLLSLVITLYCKRGRKKLLYIFKQPFMRPVQTTQEEDGCSCRFPEEEEGGCELRVKFSRSADAPAYQQGQNQLYNELNLGRREEYDVLDKRRGRDPEMGGKPRRKNPQEGLYNELQKDKMAEAYSEIGMKGERRRGKGHDGLYQGLSTATKDTYDALHMQALPPR
notes: as for B1
B7: P12F02 CD70-specific CAR (other)
chain: EVQLLESGGGLVQPGGSLRLSCAASGFTFSSYAMSWVRQAPGKGLEWVSTISGTGGTTYYADSVKGRFTISRDNSKNTLYLQMNSLRAEDTAVYYCAKVRAGIDPTASDVWGQGTLVTVSSGGGGSGGGGSGGGGSGGGGSELQSVLTQPPSASGTPGQRVTISCSGSTSNIGRNYVYWYQQLPGTAPKLLIYRTNQRPSGVPDRFSGSKSGTSASLAISGLRSEDEADYYCAAWDDSLSGRVFGTGTKLTVLTTTPAPRPPTPAPTIASQPLSLRPEACRPAAGGAVHTRGLDFACDIYIWAPLAGTCGVLLLSLVITLYCKRGRKKLLYIFKQPFMRPVQTTQEEDGCSCRFPEEEEGGCELRVKFSRSADAPAYQQGQNQLYNELNLGRREEYDVLDKRRGRDPEMGGKPRRKNPQEGLYNELQKDKMAEAYSEIGMKGERRRGKGHDGLYQGLSTATKDTYDALHMQALPPR
notes: as for B1
B8: P13F04 CD70-specific CAR (other)
chain: QVQLVQSGAEVKKPGSSVKVSCKASGGTFSSYAISWVRQAPGQGLEWMGEIIPIFGTASYAQKFQGRVTITADESTSTAYMELSSLRSEDTAVYYCARAGWDDSWFDYWGQGTLVTVSSGGGGSGGGGSGGGGSGGGGSELQSVLTQPPSASGTPGQRVTISCSGSNSNIGTNYVSWYQQLPGTAPKLLIYRSSRRPSGVPDRFSGSKSGTSASLAISGLRSEDEADYYCAAWDGSLSGHWVFGTGTKLTVLTTTPAPRPPTPAPTIASQPLSLRPEACRPAAGGAVHTRGLDFACDIYIWAPLAGTCGVLLLSLVITLYCKRGRKKLLYIFKQPFMRPVQTTQEEDGCSCRFPEEEEGGCELRVKFSRSADAPAYQQGQNQLYNELNLGRREEYDVLDKRRGRDPEMGGKPRRKNPQEGLYNELQKDKMAEAYSEIGMKGERRRGKGHDGLYQGLSTATKDTYDALHMQALPPR
notes: as for B1

target: T1, human CD70 expressed on parental (WT) Jurkat cells (human, UniProt P32970 1-193); experiment: cell-based or functional assay
T1 sequence: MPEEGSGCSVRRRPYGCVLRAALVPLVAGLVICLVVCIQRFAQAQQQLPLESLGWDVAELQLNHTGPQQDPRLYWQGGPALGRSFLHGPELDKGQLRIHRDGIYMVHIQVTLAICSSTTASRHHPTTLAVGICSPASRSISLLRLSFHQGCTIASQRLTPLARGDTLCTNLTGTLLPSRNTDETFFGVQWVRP

In order of rising “Activation ratio (WT/KO)” value:
1. B3  2.09
2. B2  6.84
3. B1  7.32

target: T1, human CD70 expressed on parental (WT) …; experiment: cell-based or functional assay; remark: another data set of the same source

In order of falling “Activation ratio (WT/KO)” value:
1. B7  12
2. B4  11.6
3. B8  4.32
4. B6  2.6
5. B5  2.26

target: T2, recombinant biotinylated human CD70 protein (human, UniProt P32970 39-193, biotinylated (site not stated)); experiment: flow cytometry: CAR-transduced Jurkat cells incubated with recombinant biotinylated human CD70, streptavidin-PE; percent of cells binding
T2 construct: also called recombinant biotinylated hCD70 protein
T2 sequence: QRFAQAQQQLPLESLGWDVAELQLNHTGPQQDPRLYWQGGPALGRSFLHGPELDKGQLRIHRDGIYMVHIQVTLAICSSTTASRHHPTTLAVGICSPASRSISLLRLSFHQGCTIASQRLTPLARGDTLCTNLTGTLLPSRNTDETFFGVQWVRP
Description: (§1) On Day 5, transduced cells were stained with human anti-CD69 antibody conjugated to PE-Cy7 and acquired on a flow cytometer to obtain percentage of CD69+ population for each CAR. […] Activation ratios (WT activation/KO activation) and protein binding were used to rank CARs.
Activation ratio and protein binding of hybridoma CARs were determined in the Jurkat screen and used for in vitro characterization of CARs. Activation ratio was determined by calculating the ratio of the percentage of CD69 expression on WT Jurkat cells transduced with CD70 CAR (WT) to that on CD70 knockout Jurkat cells transduced with CD70 CAR (KO). A higher activation ratio indicates target-dependent activation. […] Protein binding values indicate the percentage of CD3+ CAR T cells that bind to human CD70 protein.

In order of falling “Protein binding (%)” value:
1. B2  37.6%
2. B1  17.9%

target: T2, recombinant biotinylated human CD70 …; experiment: as above; remark: another data set of the same source
Description: as §1
Table 7: Activation ratio and protein binding of phage CARs were determined in the Jurkat screen. Activation ratio was used for in vitro characterization of CARs. Activation ratio was determined by calculating the ratio of the percentage of CD69 expression on WT Jurkat cells transduced with CD70 CAR (WT) to that on CD70 knockout Jurkat cells transduced with CD70 CAR (KO). A higher activation ratio indicates target-dependent activation. […] Protein binding values indicate the percentage of CD3+ CAR T cells that bind to human CD70 protein.

In order of rising “Protein binding (%)” value:
1. B7  2.39%
2. B4  15.5%
3. B8  37.5%
4. B6  62%
5. B5  70.8%
